Laboratory results as given in US20030203372A1, “Analysis method” (priority 2000, published 2003).

Columns and labels:
[1] = test system: primary human cell cultures (11 cell types); experiment: Custom gene array, 11 human cell types in normoxia or hypoxia for 6 hr and 18 hr; type: cell-based;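 for mRNA expression level, #1 HY 18 hr: cell type #1 is adipocyte from subcutaneous adult adipose tissue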;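 for mRNA expression level, #1 HY 6 hr: cell type #1 is adipocyte from subcutaneous adult adipose tissue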;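 for mRNA expression level, #1 NO: cell type #1 is adipocyte from subcutaneous adult adipose tissue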;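 for mRNA expression level, #2 HY 18 hr: cell type #2 is fetal cardiomyocyte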;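 for mRNA expression level, #2 HY 6 hr: cell type #2 is fetal cardiomyocyte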;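 for mRNA expression level, #2 NO: cell type #2 is fetal cardiomyocyte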;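 for mRNA expression level, #3 HY 6 hr: cell type #3 is human umbilical vein endothelial cells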;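 for mRNA expression level, #3 NO: cell type #3 is human umbilical vein endothelial cells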;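 for mRNA expression level, #4 HY 18 hr: cell type #4 is adult dermal fibroblast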;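 for mRNA expression level, #4 HY 6 hr: cell type #4 is adult dermal fibroblast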;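 for mRNA expression level, #4 NO: cell type #4 is adult dermal fibroblast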;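 for mRNA expression level, #5 HY 6 hr: cell type #5 is adult hepatocyte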;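 for mRNA expression level, #5 NO: cell type #5 is adult hepatocyte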;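 for mRNA expression level, #6 HY 6 hr: cell type #6 is blood-derived macrophage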;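 for mRNA expression level, #6 NO: cell type #6 is blood-derived macrophage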
Procedure: Equivalent cultures of non-immortalized, non-transformed primary human cells of 10 distinct types, were cultured in either normoxia or were exposed to hypoxia for 6 hr and 18 hr, and gene expression changes were determined. […] Moreover, unlike the vast majority of information in the public domain relating to genes responsive to hypoxia, all of these cells were human and were cultured without any modifications following isolation from the human donors.
A non-primary cell type (#9) was used to represent neurons, since primary human neurons are difficult to source. Therefore a total of 11 cell types are compared. It should be noted that RNA from hepatocytes at the […] timepoint of hypoxia was not available for this work.
Each RNA sample was hybridised to duplicate or triplicate arrays, to ensure reproducible data, and was analysed using GeneSpring software. Data from replicate arrays were merged during analysis to generate mean values. Data normalisation was achieved per-array using the aforementioned list of control genes, such that differences in RNA labelling or hybridization due to experimental variation were corrected by referencing each gene to the mean value of the reference genes on the same array. Also, for each gene, expression values were obtained which represent the value in each experimental condition (e.g. macrophages 6 hr hypoxia) as compared to the median of value of that gene throughout the full range of experimental conditions (i.e. from all cell types). […] This is common in microarray data analysis.

[2] = test system: human breast and ovary tumors; experiment: Custom gene array, breast and ovary tumors versus normal adjacent tissue; settings: for gene expression level on custom gene array, Breast nor H / gene expression level on custom gene array, Breast nor K / gene expression level on custom gene array, Ovary nor E / gene expression level on custom gene array, Ovary nor F / gene expression level on custom gene array, Ovary nor G: normal adjacent tissue; for gene expression level on custom gene array, Breast nor H / gene expression level on custom gene array, Breast tum H: patient H; for gene expression level on custom gene array, Breast nor K / gene expression level on custom gene array, Breast tum K: patient K; for gene expression level on custom gene array, Breast tum H / gene expression level on custom gene array, Breast tum K / gene expression level on custom gene array, Ovary tum E / gene expression level on custom gene array, Ovary tum F / gene expression level on custom gene array, Ovary tum G: tumor tissue; for gene expression level on custom gene array, Ovary nor E / gene expression level on custom gene array, Ovary tum E: patient E; for gene expression level on custom gene array, Ovary nor F / gene expression level on custom gene array, Ovary tum F: patient F; for gene expression level on custom gene array, Ovary nor G / gene expression level on custom gene array, Ovary tum G: patient G
Text: A study has been performed to examine the expression of these genes in a selection of breast and ovary tumors, comparing expression with normal adjacent tissue from the same patient. There is expected to be a large degree of variation between different patients, and the study here contains only 5 patients with a range of diagnoses.
Patients are designated as Letters:
E: person. Diagnosis: ovarian adenocarcinoma. Normal ovarian tissue derived from an age-matched separate individual.
: person. Diagnosis: poorly differentiated adenocarcinoma. Normal ovarian tissue derived from the same individual.
G: person. Diagnosis: moderately-differentiated adenocarcinoma. Normal ovarian tissue derived from the same individual.
H: person. Diagnosis: invasive ductal carcinoma. Normnal breast tissue derived from the same individual.
K: person. Diagnosis: invasive ductal carcinoma. Normal breast tissue derived from the same individual.
Data normalisation was done per-chip to correct for differences in labelling and hybridization efficiency. Per-gene normalisation was done such that the expression values of each gene are relative to the median value of that gene throughout the series of samples. By comparing the expression values under normal (nor) and tumor (turn) for a single patient, differences in expression between the normal and malignant tissue of that patient can be inferred.

B1: p2A23 (nucleic acid, listed as Homo Sapiens)
DNA: AGAAGAAGCTGGCCAAGGATATGGGAGCAACCACCATGGACCAGAAGTCTCTCTGGGCAGGTGTAGTGGTCTTGCTGCTTCTCCAGGGAGGATCTGCCTACAAACTGGTTTGCTACTTTACCAACTGGTCCCAGGACCGGCAGGAACCAGGAAAATTCACCCCTGAGAATATTGACCCCTTCCTATGCTCTCATCTCATCTATTCATTCGCCAGCATCGAAAACAACAAGGTTATCATCAAGGACAAGAGTGAAGTGATGCTCTACCAGACCATCAACAGTCTCAAAACCAAGAATCCCAAACTGAAAATTCTCTTGTCCATTGGAGGGTACCTGTTTGGTTCCAAAGGGTTCCACCCTATGGTGGATTCTTCTACATCACGCTTGGAATTCATTAACTCCATAATCCTGTTTCTGAGGAACCATAACTTTGATGGACTGGATGTAAGCTGGATCTACCCAGATCAGAAAGAAAACACTCATTTCACTGTGCTGATTCATGAGTTAGCAGAAGCCTTTCAGAAGGACTTCACAAAATCCACCAAGGAAAGGCTTCTCTTGACTGCGGGCGTATCTGCAGGGAGGCAAATGATTGATAACAGCTATCAAGTTGAGAAACTGGCAAAAGATCTGGATTTCATCAACCTCCTGTCCTTTGACTTCCATGGGTCTTGGGAAAAGCCCCTTATCACTGGCCACAACAGCCCTCTGAGCAAGGGGTGGCAGGACAGAGGGCCAAGCTCCTACTACAATGTGGAATATGCTGTGGGGTACTGGATACATAAGGGAATGCCATCAGAGAAGGTGGTCATGGGCATCCCCACATATGGGCACTCCTTCACACTGGCCTCTGCAGAAACCACCGTGGGGGCCCCTGCCTCTGGCCCTGGAGCTGCTGGACCCATCACAGAGTCTTCAGGCTTCCTGGCCTATTATGAGATCTGCCAGTTCCTGAAAGGAGCCAAGATCACGCGCCTCCAGGATCAGCAGGTTCCCTACGCAGTCAAGGGGAACCAGTGGGTGGGCTATGATGATGTGAAGAGTATGGAGACCAAGGTTCAGTTCTTAAAGAATTTAAACCTGGGAGGAGCCATGATCTGGTCTATTGACATGGATGACTTCACTGGCAAATCCTGCAACCAGGGCCCTTACCCTCTTGTCCAAGCAGTCAAGAGAAGCCTTGGCTCCTTGTGAAGGATTAACTTACAGAGAAGCAGGCAAGATGACCTTGCTGCCTGGGGCCTGCTCTCTCCCAGGAATTCTCATGTGGGATTCCCCTTGCCAGGCTGGCCTTTGGATCTCTCTTCCAAGCCTTTCCTGACTTCCTCTTAGATCATAGATTGGACCTGGTTTTGTTTTCCTGCAGCTGTTGACTTGTTGCCCTGAAGTACAATAAAAAAAATTCATTTTGCTCCAGTA
[1]; cell type #1, HY (hypoxia) 6 hr
  mRNA expression level: 1.24
[1]; cell type #1, HY (hypoxia) 18 hr
  mRNA expression level: 1.15
[1]; cell type #1, NO (normoxia)
  mRNA expression level: 1.79
[1]; cell type #2, HY (hypoxia) 6 hr
  mRNA expression level: 2.26
[1]; cell type #2, HY (hypoxia) 18 hr
  mRNA expression level: 1.79
[1]; cell type #2, NO (normoxia)
  mRNA expression level: 1.81
[1]; cell type #3, HY (hypoxia) 6 hr
  mRNA expression level: 1.28
[1]; cell type #3, HY (hypoxia) 18 hr
  mRNA expression level: 0.95
[1]; cell type #3, NO (normoxia)
  mRNA expression level: 1.11
[1]; cell type #4, HY (hypoxia) 6 hr
  mRNA expression level: 0.87
[1]; cell type #4, HY (hypoxia) 18 hr
  mRNA expression level: 0.77
[1]; cell type #4, NO (normoxia)
  mRNA expression level: 1.26
[1]; cell type #5, HY (hypoxia) 6 hr
  mRNA expression level: 1.43
[1]; cell type #5, NO (normoxia)
  mRNA expression level: 0.77
[1]; cell type #6, HY (hypoxia) 6 hr
  mRNA expression level: 0.91
[1]; cell type #6, NO (normoxia)
  mRNA expression level: 0.76
[2]; Table 19
  gene expression level on custom gene array, Breast nor H: 1.36
  gene expression level on custom gene array, Breast nor K: 0.91
  gene expression level on custom gene array, Breast tum H: 2.22
  gene expression level on custom gene array, Breast tum K: 2.01
  gene expression level on custom gene array, Ovary nor E: 0.66
  gene expression level on custom gene array, Ovary nor F: 0.48
  gene expression level on custom gene array, Ovary nor G: 4.18
  gene expression level on custom gene array, Ovary tum E: 0.78
  gene expression level on custom gene array, Ovary tum F: 0.61
  gene expression level on custom gene array, Ovary tum G: 0.74

B2: p1E19 (nucleic acid, listed as Homo Sapiens)
DNA: TTTTTTTTCCTAGTTTCATTAAAGATGGAGTTCATATTTGTTTCTCATATTAATTTTTAAGACAAAAAAAAGCAGAACTGTTTTCACCCATTAAGTTAAAAACTGGAATTTTACCTTTCCAAACTTATTTCCTACCTTGCCCCTTTTCATGTTAATACCATGAACTATTCAGTAATTCTCTTCAAGCTCCATAATTTCCTACTTTCTACTTTTGCTCATTATTTCCATTCCAAGGGAAAGTTCTGTGTGCGTGTCTATTTCTATGTTCAAATTACACCTGTAAGATCCAACTCACAGGGCCATTGCCCTCTAGGGGTCTCTCCTGGATCCACTTCAACAGGAGGTAATTTTATCTNCACCGGATACCATTTCCTCCTTGGACACTTACCTCTTTTANGGGGACTCCCGAGGGTTGAGGGGGNG
modifications: EST array clone; misc_feature 356, 397, 422: n = A,T,C or G
[1]; cell type #1, hypoxia 6 hr
  mRNA expression level, #1 HY 6 hr: 0.65
[1]; cell type #1, hypoxia 18 hr
  mRNA expression level, #1 HY 18 hr: 0.62
[1]; cell type #1, normoxia
  mRNA expression level, #1 NO: 0.79
[1]; cell type #2, hypoxia 6 hr
  mRNA expression level, #2 HY 6 hr: 2.37
[1]; cell type #2, hypoxia 18 hr
  mRNA expression level, #2 HY 18 hr: 2.99
[1]; cell type #2, normoxia
  mRNA expression level, #2 NO: 2.64
[1]; cell type #3, hypoxia 6 hr
  mRNA expression level, #3 HY 6 hr: 1.61
[1]; cell type #3, hypoxia 18 hr
  mRNA expression level, #3 HY 18 hr: 1.77
[1]; cell type #3, normoxia
  mRNA expression level, #3 NO: 2.10
[1]; cell type #4, hypoxia 6 hr
  mRNA expression level, #4 HY 6 hr: 0.40
[1]; cell type #4, hypoxia 18 hr
  mRNA expression level, #4 HY 18 hr: 0.64
[1]; cell type #4, normoxia
  mRNA expression level, #4 NO: 0.61
[1]; cell type #5, hypoxia 6 hr
  mRNA expression level, #5 HY 6 hr: 0.89
[1]; cell type #5, normoxia
  mRNA expression level, #5 NO: 0.42
[1]; cell type #6, hypoxia 6 hr
  mRNA expression level, #6 HY 6 hr: 0.76
[1]; cell type #6, hypoxia 18 hr
  #6 HY 18 hr (mRNA expression level): 1.08
[1]; cell type #6, normoxia
  mRNA expression level, #6 NO: 0.68
[1]; cell type #7, hypoxia 6 hr
  #7 HY 6 hr (mRNA expression level): 0.50
[1]; cell type #7, hypoxia 18 hr
  #7 HY 18 hr (mRNA expression level): 0.32
[1]; cell type #7, normoxia
  #7 NO (mRNA expression level): 0.41
[1]; cell type #8, hypoxia 6 hr
  #8 HY 6 hr (mRNA expression level): 0.90
[1]; cell type #8, hypoxia 18 hr
  #8 HY 18 hr (mRNA expression level): 0.47
[1]; cell type #8, normoxia
  #8 NO (mRNA expression level): 0.38
[1]; cell type #9, hypoxia 6 hr
  #9 HY 6 hr (mRNA expression level): 1.11
[1]; cell type #9, hypoxia 18 hr
  #9 HY 18 hr (mRNA expression level): 1.17
[1]; cell type #9, normoxia
  #9 NO (mRNA expression level): 1.30
[1]; cell type #10, hypoxia 6 hr
  #10 HY 6 hr (mRNA expression level): 1.52
[1]; cell type #10, hypoxia 18 hr
  #10 HY 18 hr (mRNA expression level): 1.39
[1]; cell type #10, normoxia
  #10 NO (mRNA expression level): 1.29
[1]; cell type #11, hypoxia 6 hr
  #11 HY 6 hr (mRNA expression level): 1.69
[1]; cell type #11, hypoxia 18 hr
  #11 HY 18 hr (mRNA expression level): 1.39
[1]; cell type #11, normoxia
  #11 NO (mRNA expression level): 1.14
[1]; hypoxia/normoxia induction ratio, 6 hr hepatocyte
  HIGHEST FOLD CHANGE IN HYPOXIA (hr hypoxia + cell type): 2.13 (6 hr hepatocyte) fold
[2]; Table 18
  gene expression level on custom gene array, Breast nor H: 2.38
  gene expression level on custom gene array, Breast nor K: 1.19
  gene expression level on custom gene array, Breast tum H: 2.49
  gene expression level on custom gene array, Breast tum K: 1.78
  gene expression level on custom gene array, Ovary nor E: 1.00
  gene expression level on custom gene array, Ovary nor F: 1.38
  gene expression level on custom gene array, Ovary nor G: 0.20
  gene expression level on custom gene array, Ovary tum E: 2.04
  gene expression level on custom gene array, Ovary tum F: 1.30
  gene expression level on custom gene array, Ovary tum G: 1.19
